Test results reported in the Immune Epitope Database (IEDB).

Legend:
[1] = biological target: HLA-B*08:01; test: IEDB peptide-MHC binding, purified MHC/competitive/fluorescence; ≥ and ≤ were set here for values at or beyond the usual limits of such assays; details: source organism: Vaccinia virus WR
[2] = biological target: HLA-B*07:02; test: as above; details: source organism: Vaccinia virus WR
[3] = biological target: HLA-A*24:02; test: as above; details: source organism: Vaccinia virus WR
[4] = biological target: HLA-A*68:02; test: IEDB peptide-MHC binding, purified MHC/competitive/fluorescence; filed as Kd, often an IC50 or EC50 that approximates it; ≥ and ≤ were set here for values at or beyond the usual limits of such assays
[5] = biological target: HLA-B*18:01; test: as above
[6] = biological target: HLA-A*26:01; test: as above
[7] = biological target: HLA-A*02:16; test: as above
[8] = biological target: HLA-A*02:12; test: as above
[9] = biological target: HLA-A*02:01; test: as above
[10] = biological target: HLA-A*24:03; test: as above
[11] = biological target: HLA-A*02:03; test: as above
[12] = biological target: HLA-B*15:17; test: as above; details: source organism: Cryptosporidium parvum Iowa II
[13] = biological target: HLA-A*02:19; test: as above
[14] = biological target: HLA-B*46:01; test: as above
[15] = biological target: HLA-B*27:03; test: as above
[16] = biological target: HLA-B*57:01; test: as above
[17] = biological target: HLA-A*29:02; test: as above
[18] = biological target: HLA-B*15:01; test: as above
[19] = biological target: HLA-B*51:01; test: as above
[20] = biological target: HLA-A*69:01; test: as above
[21] = biological target: HLA-A*02:11; test: as above
[22] = biological target: HLA-B*39:01; test: as above
[23] = biological target: HLA-A*03:01; test: as above
[24] = biological target: HLA-A*31:01; test: as above; details: source organism: Bacillus anthracis str. A0488
[25] = biological target: HLA-B*40:01; test: as above; details: source organism: Salmonella enterica subsp. enterica serovar Typhi
[26] = biological target: HLA-A*80:01; test: IEDB peptide-MHC binding, purified MHC/direct/fluorescence; filed as Kd, often an IC50 or EC50 that approximates it; ≥ and ≤ were set here for values at or beyond the usual limits of such assays; details: source organism: Orthohantavirus andesense
[27] = biological target: HLA-A*01:01; test: as above; details: source organism: Orthohantavirus andesense
[28] = source organism: Cryptosporidium parvum Iowa II
[29] = source organism: Bacillus anthracis str. A0488
[30] = source organism: Listeria monocytogenes J0161

LPKRSVMLI
IC50 [1]: 12.9 µM | IC50 [2]: 6.45 µM | IC50 [3]: ≥ 93 µM

KLYLRPWWH
Kd [4, 28]: ≥ 20 µM | Kd [5, 28]: ≥ 20 µM | Kd [6, 28]: ≥ 20 µM | Kd [7, 28]: ≥ 20 µM | Kd [8, 28]: ≥ 20 µM | Kd [9, 28]: ≥ 20 µM | Kd [10, 28]: ≥ 20 µM | Kd [11, 28]: ≥ 20 µM | Kd [12]: ≥ 20 µM | Kd [13, 28]: ≥ 20 µM | Kd [14, 28]: ≥ 20 µM | Kd [15, 28]: ≥ 20 µM | Kd [16, 28]: ≥ 20 µM | Kd [17, 28]: 0.683 µM | Kd [18, 28]: ≥ 20 µM | Kd [19, 28]: ≥ 20 µM | Kd [20, 28]: ≥ 20 µM | Kd [21, 28]: ≥ 20 µM | Kd [22, 28]: ≥ 20 µM | Kd [23, 28]: 0.0044 µM

IQKGMFVVK
Kd [4, 29]: ≥ 20 µM | Kd [5, 29]: ≥ 20 µM | Kd [6, 29]: ≥ 20 µM | Kd [7, 29]: ≥ 20 µM | Kd [8, 29]: ≥ 20 µM | Kd [9, 29]: ≥ 20 µM | Kd [10, 29]: ≥ 20 µM | Kd [11, 29]: ≥ 20 µM | Kd [13, 29]: ≥ 20 µM | Kd [14, 29]: ≥ 20 µM | Kd [15, 29]: ≥ 20 µM | Kd [16, 29]: ≥ 20 µM | Kd [24]: 0.0158 µM | Kd [19, 29]: ≥ 20 µM | Kd [20, 29]: ≥ 20 µM | Kd [21, 29]: ≥ 20 µM | Kd [22, 29]: ≥ 20 µM

IEIARTLTL
Kd [25]: 0.0108 µM

HSDDALFIY
Kd [26]: 16 µM | Kd [27]: ≥ 20 µM

YNAKRIETV
Kd [5, 30]: ≥ 20 µM | Kd [6, 30]: ≥ 20 µM | Kd [8, 30]: ≥ 20 µM | Kd [9, 30]: ≥ 20 µM | Kd [10, 30]: ≥ 20 µM | Kd [11, 30]: ≥ 20 µM | Kd [13, 30]: ≥ 20 µM | Kd [14, 30]: ≥ 20 µM | Kd [15, 30]: ≥ 20 µM | Kd [16, 30]: ≥ 20 µM | Kd [17, 30]: ≥ 20 µM | Kd [18, 30]: ≥ 20 µM | Kd [19, 30]: ≥ 20 µM | Kd [21, 30]: 0.239 µM | Kd [22, 30]: ≥ 20 µM | Kd [23, 30]: ≥ 20 µM
